Experiments:
[1] = target: Flag-tagged WT PKM2 expressed in 32D BCR-ABL cells (UniProt P14618); assay: SEC; cell lysate of 32D BCR-ABL cells on Superdex 200 10/300GL, 50 mM phosphate, 0.15 M NaCl, pH 7.2; fractions by UV absorbance and western blot
[2] = target: recombinant His-tagged PKM2 after the in vitro SUMOylation reaction (SUMO1 conjugated at K270) (UniProt P14618); assay: SEC; samples of the in vitro SUMOylation reaction (recombinant PKM2 or PKM1 with or without purified SUMO1, E1 and E2); UV absorbance and western blot of the fractions with anti-PKM2 or anti-PKM1; tetramer, dimer, monomer by molecular weight

Sequence of Flag-tagged WT PKM2 expressed in 32D BCR-ABL cells, P14618 1-531 (enzyme; other documents disagree on this pair) (P14618 whole entry): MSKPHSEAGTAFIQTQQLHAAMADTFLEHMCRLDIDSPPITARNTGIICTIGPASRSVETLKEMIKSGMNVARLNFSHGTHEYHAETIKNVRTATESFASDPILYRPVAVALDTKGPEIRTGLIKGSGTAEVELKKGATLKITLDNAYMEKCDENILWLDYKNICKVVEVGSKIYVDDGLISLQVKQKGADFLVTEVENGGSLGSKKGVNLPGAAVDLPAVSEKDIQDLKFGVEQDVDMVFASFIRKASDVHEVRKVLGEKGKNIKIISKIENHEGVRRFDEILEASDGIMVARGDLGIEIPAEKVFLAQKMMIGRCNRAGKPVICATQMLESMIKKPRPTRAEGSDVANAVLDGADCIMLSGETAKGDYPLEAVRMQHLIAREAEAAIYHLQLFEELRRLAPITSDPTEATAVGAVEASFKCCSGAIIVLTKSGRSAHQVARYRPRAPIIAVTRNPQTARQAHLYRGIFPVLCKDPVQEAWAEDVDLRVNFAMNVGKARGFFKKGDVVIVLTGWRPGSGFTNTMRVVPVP
Sequence of recombinant His-tagged PKM2 after the in vitro SUMOylation reaction (SUMO1 conjugated at K270) (from UniProt P14618 1-531; P63165 1-97) (enzyme) (P14618 whole entry): as above
Sequence of recombinant His-tagged PKM2 after the in vitro SUMOylation reaction (SUMO1 conjugated at K270) (from UniProt P14618 1-531; P63165 1-97) (enzyme) (P63165 1-97): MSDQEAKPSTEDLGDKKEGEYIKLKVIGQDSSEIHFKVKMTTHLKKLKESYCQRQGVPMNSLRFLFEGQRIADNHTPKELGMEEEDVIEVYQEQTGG

stoichiometry N [1]	stoichiometry N [2]	Substance
2	–	Flag-tagged WT PKM2 expressed in 32D BCR-ABL cells, P14618 1-531 (enzyme; other documents disagree on this pair)
–	2	recombinant His-tagged PKM2 after the in vitro SUMOylation reaction (SUMO1 conjugated at K270) (from UniProt P14618 1-531; P63165 1-97) (enzyme)

Source: publication PMC7817830
